Laboratory results published in patent US20260265354A1 (JIANGSU MABWELL HEALTH PHARMACEUTICAL R AND D, published 2026).
Positions count from the first letter of the chain named.

T1: Nectin-like-3 (UniProt Q8N3J6 25-367, limits assumed)
T1 construct: Bought recombinant protein; also called CADM2; IgSF4D
T1 sequence (looked up): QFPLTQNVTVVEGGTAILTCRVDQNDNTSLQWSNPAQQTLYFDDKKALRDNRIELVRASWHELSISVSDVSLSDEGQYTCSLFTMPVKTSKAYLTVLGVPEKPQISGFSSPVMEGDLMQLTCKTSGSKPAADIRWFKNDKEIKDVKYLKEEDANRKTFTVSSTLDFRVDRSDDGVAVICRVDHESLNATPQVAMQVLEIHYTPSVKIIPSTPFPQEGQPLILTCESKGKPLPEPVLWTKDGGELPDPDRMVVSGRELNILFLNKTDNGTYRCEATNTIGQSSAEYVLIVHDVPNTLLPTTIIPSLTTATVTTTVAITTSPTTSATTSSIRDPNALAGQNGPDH

T2: recombinant human Nectin-4 protein (human, UniProt Q96NY8 32-349)
T2 construct: Prepared in-house (Jiangsu Mabwell) by transient transfection of CHO cells; also called PVRL-4; PRR-4
T2 sequence: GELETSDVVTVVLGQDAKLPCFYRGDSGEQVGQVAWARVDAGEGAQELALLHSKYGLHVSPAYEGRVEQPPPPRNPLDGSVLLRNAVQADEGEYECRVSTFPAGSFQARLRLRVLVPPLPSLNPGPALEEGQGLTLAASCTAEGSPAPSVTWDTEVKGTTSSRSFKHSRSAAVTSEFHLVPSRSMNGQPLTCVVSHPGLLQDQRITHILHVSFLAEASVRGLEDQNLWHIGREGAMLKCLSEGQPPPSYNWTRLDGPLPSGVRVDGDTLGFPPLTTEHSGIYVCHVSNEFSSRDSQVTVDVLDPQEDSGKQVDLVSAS

T3: Nectin-like-1 (UniProt Q8N126 25-330, limits assumed)
T3 construct: Bought recombinant protein; also called CADM3; IgSF4B
T3 sequence (looked up): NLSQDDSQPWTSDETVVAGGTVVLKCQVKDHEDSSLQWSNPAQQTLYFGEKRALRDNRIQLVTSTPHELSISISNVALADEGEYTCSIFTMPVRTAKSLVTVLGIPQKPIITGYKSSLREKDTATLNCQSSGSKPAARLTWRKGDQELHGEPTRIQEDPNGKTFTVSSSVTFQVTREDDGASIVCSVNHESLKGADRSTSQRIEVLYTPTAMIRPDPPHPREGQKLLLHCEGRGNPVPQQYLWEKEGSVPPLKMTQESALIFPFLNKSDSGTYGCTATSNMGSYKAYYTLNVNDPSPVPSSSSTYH

T4: Nectin-like-5 (UniProt P15151 21-343)
T4 construct: Bought recombinant protein; also called CD155; PVR
T4 sequence (looked up): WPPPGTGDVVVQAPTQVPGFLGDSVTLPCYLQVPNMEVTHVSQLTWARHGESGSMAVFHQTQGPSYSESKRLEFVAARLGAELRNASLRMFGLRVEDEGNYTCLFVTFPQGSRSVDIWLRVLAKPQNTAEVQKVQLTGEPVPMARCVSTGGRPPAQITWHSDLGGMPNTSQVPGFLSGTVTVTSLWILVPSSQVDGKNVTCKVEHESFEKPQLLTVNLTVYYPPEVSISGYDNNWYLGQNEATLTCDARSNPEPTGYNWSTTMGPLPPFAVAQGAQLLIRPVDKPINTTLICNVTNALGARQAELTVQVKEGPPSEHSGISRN

T5: Nectin-like-4 (UniProt Q8NFZ8 21-324, limits assumed)
T5 construct: Bought recombinant protein; also called CADM4; IgSF4C
T5 sequence (looked up): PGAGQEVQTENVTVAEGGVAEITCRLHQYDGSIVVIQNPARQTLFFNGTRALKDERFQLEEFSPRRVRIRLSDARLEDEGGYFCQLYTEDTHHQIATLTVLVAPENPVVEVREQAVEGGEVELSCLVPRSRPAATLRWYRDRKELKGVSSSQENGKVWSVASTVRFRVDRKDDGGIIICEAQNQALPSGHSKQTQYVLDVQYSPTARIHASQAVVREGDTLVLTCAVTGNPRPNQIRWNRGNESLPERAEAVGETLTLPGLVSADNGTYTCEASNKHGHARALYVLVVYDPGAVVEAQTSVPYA

T6: Nectin-like-2 (UniProt Q9BY67 45-374, limits assumed)
T6 construct: Bought recombinant protein; also called CADM1; IgSF4
T6 sequence (looked up): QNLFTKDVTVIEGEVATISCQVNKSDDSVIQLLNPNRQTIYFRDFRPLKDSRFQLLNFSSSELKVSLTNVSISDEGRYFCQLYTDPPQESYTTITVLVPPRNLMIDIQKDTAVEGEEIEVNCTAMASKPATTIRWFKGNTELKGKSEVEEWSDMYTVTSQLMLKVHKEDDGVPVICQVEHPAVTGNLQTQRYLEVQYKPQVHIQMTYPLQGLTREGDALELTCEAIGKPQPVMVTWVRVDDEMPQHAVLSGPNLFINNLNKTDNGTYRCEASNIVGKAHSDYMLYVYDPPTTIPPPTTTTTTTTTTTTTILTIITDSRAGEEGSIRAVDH

B1: Antibody R012 (antibody, V domains shown)
VH: SKSVEESGGRLVTPGTPLTLTCTVSGFSLSTYAMSWVRQAPGKGLEYIGIISGRGTTYYASWLKGRFTISKTSTTVDLKITSPTTEDTATYFCARDAGISDVYTGYFNLWGQGTLVTVSS
VL: QPVLAQLPSASAALGASAKLTCTLSSAHRTYTIAWYQQQQGEAPRYLMMLKSDGSYTKGTGVPDRFSGSSSGADRYLIISSVQAADEADYYCGADDSGGYVFGGGTQLTVTG
notes: Rabbit monoclonal antibody from phage display; also called Nectin-4 rabbit monoclonal antibody R012; rabbit antibody R012
B2: Antibody R036 (antibody, V domains shown)
VH: SQSVEESGGRLVTPGTPLTLTCTVSGFSLSSYAMSWVRQAPGKGLEYIGIIGGRGTTYYAIWAKGRFTISKTSTTVDLKITSPTTEDTATYFCARDAGTTYVGTTYVATGYFNLWGQGTLVTVSS
VL: B1 VL with A5T, L7P, R29K, M49I, K58R, A85D
notes: Rabbit monoclonal antibody from phage display; also called Nectin-4 rabbit monoclonal antibody R036; rabbit antibody R036
B3: Antibody MM11 (antibody, mouse IgG1, kappa, V domains shown)
VH: DVQLQESGPGLVKPSQSLSLTCSVTGYSITSNFYWNWIRQFPGNRLEWMGYISYDGSNNYNPSLKNRISISRDTSKNQFFLKLNSVTTEDTATYYCVRADYWGQGTLVTVSA
VL: DTVMTQTPLSLPVSLGDQASISCRSSQSLESSDGHAYLNWYLQKPGQSPQLLIYRVSNRFSGVLHRFSGSGSGTDFTLKISRVEAEDLGVYFCLQFTHVPFTFGSGTKLEIKR
notes: Mouse monoclonal antibody from hybridoma; also called Nectin-4 mouse monoclonal antibody MM11; mouse antibody MM11

What follows are binders tested against T1, Nectin-like-3 (assay: ELISA, coated antigen, antibody at 100 ng/ml).
Protocol: (§1) Coating: Nectin-1, Nectin-2, Nectin-3, Nectin-4, Nectin-like-1, Nectin-like-2, Nectin-like-3, Nectin-like-4, and Nectin-like-5 were diluted to 5 μg/ml in coating buffer (carbonate buffer, pH 9.6) respectively. A 96-well plate was coat with 100 μl per well and incubated overnight at 2-8° C.;
(§2) Sample loading: The plate was taken out, patted dry, and washed twice with 200 μl/well of PBST, then patted dry. The Nectin-4 antibodies prepared in Example 1 (antibody MM11, antibody R012, and antibody R036) were diluted with 1% BSA/PBST to concentrations of 10 μg/ml, 1 μg/ml, 100 ng/ml, and 10 ng/ml, respectively. 1% BSA/PBST solution for dilution was set as a blank control. 100 μl per well was added to the 96-well plate, and incubated at room temperature for 2 hours;
(§3) Reaction termination and plate reading: 100 μl/well of 1 mol/L H3PO4 was added to terminate the reaction and the plated was read. The absorbances of wells in the plate at 450 nm with 650 nm as reference wavelength were read and recorded as OD_{450 nm-650 nm}.

Binder	OD detection value
B1	0.008 OD450 nm-650 nm
B2	0.007 OD450 nm-650 nm
B3	0.031 OD450 nm-650 nm

What follows are binders tested against T2, recombinant human Nectin-4 protein (assay: ELISA, coated antigen, antibody at 100 ng/ml).
Protocol: as §1, §2, §3

Binder	OD detection value
B1	1.44 OD450 nm-650 nm
B2	1.48 OD450 nm-650 nm
B3	1.64 OD450 nm-650 nm

Each binder was assayed against T3, Nectin-like-1 (assay: ELISA, coated antigen, antibody at 100 ng/ml).
Protocol: as §1, §2, §3

Binder	OD detection value
B1	0.008 OD450 nm-650 nm
B2	0.007 OD450 nm-650 nm
B3	0.01 OD450 nm-650 nm

The binders below were run against T4, Nectin-like-5 (assay: ELISA, coated antigen, antibody at 100 ng/ml).
Protocol: as §1, §2, §3

Binder	OD detection value
B1	0.008 OD450 nm-650 nm
B2	0.009 OD450 nm-650 nm
B3	0.007 OD450 nm-650 nm

Each binder was assayed against T5, Nectin-like-4 (assay: ELISA, coated antigen, antibody at 1000 ng/ml).
Protocol: as §1, §2, §3

Binder	OD detection value
B1	0.007 OD450 nm-650 nm
B2	0.007 OD450 nm-650 nm
B3	0.01 OD450 nm-650 nm

Each binder was assayed against T6, Nectin-like-2 (assay: ELISA, coated antigen, antibody at 1000 ng/ml).
Protocol: as §1, §2, §3

Binder	OD detection value
B1	0.007 OD450 nm-650 nm
B2	0.006 OD450 nm-650 nm
B3	0.008 OD450 nm-650 nm
